Assay: label from the status in PepcDB records

Row | Sequence | protein production
1 | MSNVRIRQATTDDLIGIFEAHRNSVERLCTSEYSDQQIRMWLDGRSPETYREAVEKGSLWLAEGEQIEGFVELDGNEVSKLFIRGDVARRGLGSRLLEVALARLRASGASSAYLEATLTAEGFYAYHGFQKIGEGTFSRGNSPVSIEIIKMERPL | failed
2 | HALGAPVLRVEGLSQAGHFRNVSFEVRAGEVLGITGLLGSGVKELVECLFGLEQPDAGSVTIDGEVRRFANPGRAVQGRVALVPEDRRAHGVATDMSVRDNITIASLERYMTRGFVSRARENEAVDGFIRELSIKTPHRDQLVRNLSGGNQQKVALAKWLSCQSRVYVLDEPTVAVDVGAKVEIYTLLNRLAAEGAAILFLSSDLLEIAGFCDRALVVYRGTLNGEFAGETLDSDLLLAAASGARAQRKEA | failed
3 | MGHHHHHHSHSSEVNATEEMSTLVNYIEPVKFKSFEAARKRNKCFEMSSFVETKAMEQLTKSPMEFVEYNKQQLSRIYPKGTRVDSSNYMPQLFWNVGCQLVALNFQTLDVAMQLNAGVFEYNGRSGYLLKPEFMRRPDKSFDPFTEVIVDGIVANALRVKVISGQ | failed
4 | MAAEIGSDSQLKRRRRRDPEGSEKTELSEREPALAVEGREENDDENEERWVGPLPVEATLAKKRKVLEFERVYLENLPSASMYERSYMHRDVITHVVCTKTDFIITASHDGHVKFWKKIEEGIEFVKHFRSHLGIIESIAVSSEGALFCSVGDDKAMKVFDVVNFDMINMLKLGYFPGQCEWIYCPGDAISSVAASEKSTGKIFIYDGRGDNQPLHIFDKLHVSPLTQIRLNPVYKAVVSSDKSGMIEYWTGPPHEYKFPKTVNWEYKTDTDLYEFAKCKAYPTSICFSPDGKKIATIGSDRKVRIFRFLTGKLMRVFDESLSMFTELQQMRQQLPDMEFGRRMAVERELEKVDAVRLINIVFDETGHFVLYGTMLGIKVINVETNRCVRILGKQENIRVMQLALFQGIAKKHRAAATIEMKASENPVLQNIQADPTIVCTSFKKNRFYMFTKREPEDTKSADSDRDVFNEKPSKEEVMAATQAEGPKRVSDSAIVHTSMGDIHIKLFPVECPKTVENFCVHSRNGYYNGHTFHRIIKGFMIQTGDPTGTGMGGESIWGGEFEDEFHSTLRHDRPYTLSMANAGSNTNGSQFFITVVPTPWLDNKHTVFGRVTKGMEVVQRISNVKVNPKTDKPYEDVSIINITVK | failed
5 | MTQKFGLSAALTTPFKTDGTVDIDAMIAHARRCLSNGCDSVTLFGTTGEGCSVGSRERQAILSSFIAAGIAPSRIVTGVLVDSIEDAADQSAEALNAGARNILLAPPSYFKNVSDDGLFAWFSAVFSKIGKDARDILVYNIPSVTMVTLSVELVGRLKAAFPGIVTGVKDSSGNWSHTERLLKEHGDLAILIGDERDLARGVRLGGQGAISGVANFLTQEVRAMAVDGKDDPRIVDLVVELLKFPVTPAVKVLVSHTTGETIWSDVRAPLVAISPEDRRQIEGAFDALFRRQAA | not failed
6 | MINIRSFRDLLRLFFIFKREVKITVLVTFIIIVLGAFLLPNRFESTALLLVKPGRDTSTLPIEIADRQAVVIPSAQRDPIIDEERILGGEPIARKVAEKYLDDLSRQPQPSGALATLKNAVKGAVEGIVDLLRGALQLVGLVEKQTPVERLTERMLKSFSVTHAAGSSVMEVSFTWNDPKVAQTVVKSWIEQYQQERAQTLGRKSLYAFYETESGATNQRILGYKKQIADYLNQLGAVSIEERLNDISRNLNNLKGEHLNTTRAVASTRSGLETIQKQLNSMKKEISIGRQMSLNPDRQDLQQRINAKQIERQEMLRTFKEGAPPVRAMDAAIANLQALLKSESGTVQRSENLAPNPVYTRLQNSFADQQASLSRLQTQAAQQETQLLKLEQERRQALAVEPELARLQRELSAAEKSFALYSDSTEKARIDRELDQSQISNIAVIEEATFKPSRVFPKSLSMLLAAIPLSLAVGLLALYFFYLLDQRIHDGDQIEERFGVKVWTSLQDLDSHLPQRNSAFTASLYRLYGILPLKQVALQGLVIGLTSARRGEGVSFVTAHLRDLLQERGHVVRVNGAPNAVPGEIVLLEASGFFSNQEAFVSLREADLIALIVEAETTTVPVLQNALSILTTAFKRVDGIIINRRRFGIPENVLNFLARIRSPH | failed
7 | MDKNALRKQILQKRMALSTIEKSHLDQKINQKLVAFLTPKPCIKTIALYEPIKNEVTFVDFFFEFLKINQIRAVYPKVISDTEIIFIDQETNTFEPNQIDCFLIPLVGFNKDNYRLGFGKGYYDRYLMQLTRQQPKIGIAYSFQKGDFLADPWDVQLDLIINDE | not failed
8 | AIREREMKVLNIQVTSSCNYACGMCPFHGDGYSGEYFDERPTIRRDMSLDEIKLILEKASMEGFEWIDLTPNGEFFTHKQWYQILSLIKEFGLKIMITSNGGLLGEEDIKRACEVGVDHIVISVDSLSYESYKKIRKPATKLAFERAIHAPLYFKKYG | failed
9 | MIRIGNLYVYLKNYIMKFTKLTIAFLSVFFCLVVACGSDGINDDPKTPDVTEPVTPNEPDEPDNPSVVKVPTLQKNVQDEWKIDSIDDGFIYYNYERYDDVSKAQQIVNVLEIDLLSNKYKVEFTYNNGDSLSTTAQVRGAIGGINGGYEQEAIYIRINGTNISEVTLPEGHLRYWKHDGALYSDGKSDIGIIYGGRNGKAAIDTYKQHSAKYLLASAPTLIDDYNPLGETFVGNYTMEQLESFDYEDYRRHQGVRHPRTVVAVTEDKDLLLVTIDGRWAGKAEGMSAKEVTLFLKKHFNPQYALNMDGGGSTTMYVKGKGAAKTDVVNYPTDNGVFNHYGQRRVTTHIIVKRK | failed
10 | MPTYEELSQAVFEGDEAQVVELTRSLLSGGAEPLEVINKGLIAGMDRVGVLFKNNEMFVPEVLMSANAMNAGVEVVKQSQQAFDMPSVGKIVLGTVKGDLHDIGKNLVAMMLESGGFTVYNLGVDIEPGKFVEAVKKYQPDIVGMSALLTTTMMNMKSTIDALIAAGLRDRVKVIVGGAPLSQDFADEIGADGYAPDAASATELCRQLLE | not failed
11 | MKKMLPESKVESIRKEGFLNRAVEAYRFFYPTVSNVSNFKALHDLGITENHDFIIQLTTPDLNVLTQNSDTPYCLGTGNTENGPVVIELPLGAIVGVADDINFKFITNMGLTGDEEGKGAKYLYLPPNYDGDIPEGYIVRKPSSFRFLICLRAMVHQASDYEKAFELLKTVKFYPLKEAKNNPTSTFHDFSHRKAISTPYYVEGKFDYWEVIKWALDNDETDPEYYQMYGLLKAIGLAPNKEFNPDSDTKALLIEAAEKADKMMFVNSFNTDDPAAIVWPGKNWEWAVYGENNDFYEKTYLNLPVRERWFYQATLETHMMFMHKVGFGSVYMLGVKDKEGNYLDGGKSYTLKVPTPVPTSIFWSVTVYEMDTRSEIVTEQFMPALNSIKDTFEADADGNTTLYFGPNPPEDESLPWIQTVPDANWFTYFRIYGPTEPAFDNSWQLYDFEEVK | failed
12 | RLKVEDALSYLDQVKLQFGSQPQVYNDFLDIMKEFKSQSIDTPGVISRVSQLFKGHPDLIMGFNTFLPPGYKIEVQTNDMVNVTTPGQVHQIPTHGI | failed
13 | MEELLREYLPILVFLAVAAGLGLVLILAAVVLAVRNPDPEKVSAYECGFNAFDDARMKFDVRFYLVSILFIIFDLEIAFLFPWAVGFKDMSDVGFWSMMVFLGVLTIGFAYEWKKGALEWQ | failed
14 | MFSRVPAKSIARFRCVSESIHRRPDVTEQSLTKSMSRPRLLFALEVNKDLLFFSSPQPQNPYDNSSLVATPYKRFPKYLPTRICTTLGGLVFLQKWLRKKTRVICNPVSGDYITLPKVKATGVGESYFGFDPITKQFKVLCMTWSRYGTPNTHQVLTLETGKRLWRTIQDPILPHYRSFDRICINGVLYYGADFEESQSSKIVCFDFRFEKFSFINIADEGMFRGSYKWTLFNYKGKLGAHQYSRNGELVLWVLEDAENHKWSKSICILPPIVHNSRIVGVTGTGEIVFSPYACYMPSPFYIFFYNIQTKTCTRVHVKGFEEFKHNFTLLHTFLDFVEDTKFM | failed
15 | MTLNAKGESNQILVDKEVHSTNLLLDIDEKPELFQGLLLSFQHVFAMFGATILVPLILGMPVSVALFASGCGTLIYQVATKFKVPVYLGSSFAYITAMALAMKQMHGDISAAQTGILFVGLIYVVVATVIKFVGNSWVDKILPPIIIGPMIIVIGLGLANSAVTNAGFVAKGDWRKMLVAVVTFLIAAFINTKGKGFIKIIPFLFAIIGGYILSIILGLVDLSPVEKAAWFELPKFYLPFKTGLFHSYKLYFGPEMLAILPISIVTIAENIGDHTVLGQICGRNFLKKPGLNRLLIGDGLATAFSALIGGPAETTYGENTGVIGMTRIASVTVIRNAAFIAIAFSFFGKFTALISTIPSAVLGGMAILLYGVIASNGLKVLIENRVNFAEVRNLIIASSMLVLGLGGAVLDLGALTLSGTALSAIVGIILNLILPKESMKS | not failed
16 | MSLVKIVRIETFPLFHRLEKPYGDANGFKRYRTCYLIRIITESGIDGWGECVDWLPALHVGFTKRIIPFLLGKQAGSRLSLVRTIQKWHQRAASAVSMALTEIAAKAADCSVCELWGGRYREEIPVYASFQSYSDSPQWISRSVSNVEAQLKKGFEQIKVKIGGTSFKEDVRHINALQHTAGSSITMILDANQSYDAAAAFKWERYFSEWTNIGWLEEPLPFDQPQDYAMLRSRLSVPVAGGENMKGPAQYVPLLSQRCLDIIQPDVMHVNGIDEFRDCLQLARYFGVRASAHAYDGSLSRLYALFAQACLPPWSKMKNDHIEPIEWDVMENPFTDLVSLQPSKGMVHIPKGKGIGTEINMEIVNRYKWDGSAYEGHHHHHH | not failed
17 | MKLAVISSIYKNDSLSKIKQSLQSLLNQENVTCDIYLYCDGPVSIDIVHFLDSFDQNSLYIFKQEQNRGLAHALNELLNIVLTKEYEYIARMDADDISMPERFVKQIAFMNSHPDIDCLGTWAIEIDDDGKEYFRKKMPITHEECLELFKKRDCMIHPTVMFRRSYFEKAGLYPEDTYFGEDTMMWAKGFKSGCKFANVPEYLFKFRLDSNFFERRRGWKHAKSIYTLRHRVNRMLGFGWKEDCYALLYAMAKLMPKSILDIIYKTVR | failed
18 | MIKERPKFNWLHLLIFIVVVEAIGSLSAWLAGDIKAVYNGLNLPVLSPPDGLFGIVWPILYALIAIAGYLVFQQATTHRDRLMDATLFGIQLLLNFIWSIIFFSQSAYWWGLVIIIVLDLVVLLCILRFYRSSRLAAILMVPYLVWICFATYLTLGVALLN | failed
19 | MIIGIDVGGTNTDAAIVSDEIKTIKLPNEAGIGGILKEISKEANLIEEKVVVSTSWPLNLIISKFSESRTLSLVIPGPGLNYSEYGEVLKGYVNHRGDVVEDIDEYEIAAIFRENSYDNVAISSKFSVRNGSLEDRVAEIVRNYV | failed
20 | MEVQETRVQTDRVLTIPNILSMARLVGVPVFLWLILRPEFGGPKSDGWALLVLALSGISDYLDGKLARRWNQISSLGRLLDPAADRLYILSTLVGLTWREILPIWLTAALLARELVLLVMVGILRRHGYPPPQVNFLGKAATFNLMYAFPLLLLSDSSGWIGSLAAIFGWAFAGWGTTLYWWAGVLYMVQVRRLVRADAVAD | failed
21 | LLARALYDNCPDCSDELAFSRGDILTILEQHVPESEGWWKCLLHGRQGLAPANRLQIL | not failed

Reference: a protein production outcome set (Wang et al. 2014)
